Reference: article PMC8686473

Experiments:
[1] = target: Etanercept (UniProt P20333); assay: SEC-MALS; untreated formulation diluted 25 times in water to 2 mg/ml; BioResolve SEC mAb column, 50 mM phosphate buffer pH 7, 200 mM KCl, 30°C, 0.5 ml/min
[2] = target: Etanercept (UniProt P20333); assay: SEC-MALS; formulation after forced degradation (stirring at 600 rpm, 60°C, 2 h); BioResolve SEC mAb column, 50 mM phosphate buffer pH 7, 200 mM KCl, 30°C, 0.5 ml/min

stoichiometry N [1]: 3
stoichiometry N [2]: 23
Substance: Etanercept (from UniProt P20333 23-257) (Fc fusion)
